{"source": "patent US12611443B2", "about": "“Methods and compositions related to therapeutic peptides for cancer therapy” (THE UNIVERSITY OF CHICAGO, priority 2018, dated 2026)", "molecules": {"B1": {"name": "N-terminal domain peptide of CD95: N-terminal domain of human CD95, aa 1-209 (protein, listed as Homo sapiens)", "chain": "MLGIWTLLPLVLTSVARLSSKSVNAQVTDINSKGLELRKTVTTVETQNLEGLHHDGQFCHKPCPPGERKARDCTVNGDEPDCVPCQEGKEYTDKAHFSSKCRRCRLCDEGHGLEVEINCTRTQNTKCRCKPNFFCNSTVCEHCDPCTKCEHGIIKECTLTSNTKCKEEGSRSNLGWLCLLLLPIPLIVWVKRKEVQKTCRKHRKENQGS"}, "B2": {"name": "PMSF-ELANE: ELANE inactivated with PMSF (or A1AT) (protein, UniProt P08246 30-267, looked up)", "Neutrophil elastase": "IVGGRRARPHAWPFMVSLQLRGGHFCGATLIAPNFVMSAAHCVANVNVRAVRVVLGAHNLSRREPTRQVFAVQRIFENGYDPVNLLNDIVILQLNGSATINANVQVAQLPAQGRRLGNGVQCLAMGWGLLGRNRGIASVLQELNVTVVTSLCRRSNVCTLVRGRQAGVCFGDSGSPLVCNGLIHGIASFVRGGCASGLYPDAFAPVAQFVNWIDSIIQRSEDNPCPHPRDPDPASRTH", "modifications": "PMSF-inactivated"}, "B3": {"name": "fluorescein-labeled ELANE: fluorescein-labeled ELANE used for uptake (protein, UniProt P08246 30-267, looked up)", "Neutrophil elastase": "B2 Neutrophil elastase", "modifications": "fluorescein label", "notes": "fluorescein-labeled ELANE used for uptake"}}, "key": {"[1]": {"test_system": "cancer cells", "experiment": "ELANE internalization by cancer cells and effect of endocytosis inhibitor", "format": "cell-based", "experimental": "(§1) FIGS. 1A-1K. ELANE cleaves CD95 to selectively kill cancer cells. (A): Heatmap summary of ELANE's effects on survival, stress, and apoptosis pathways in cancer cells and healthy cells. (B-C): Cancer cells were treated with ELANE (100 nM) and CD95 cleavage was assessed by western blotting using anti-N-terminal (B) or anti-C-terminal antibodies (C). *, lower molecular weight CD95 fragment. (D): Cancer cells or non-cancer cells were transduced to overexpress CD95 proteins, and effects on ELANE-mediated apoptosis were quantified by ANXAS at 30 min. n=2/group. See FIG. 1I for transduction and CD95 over-expression. (E): Cleavage of recombinant human CD95 N-terminal (aa 1-173) or C-terminal (aa 212-335) proteins by ELANE was assessed by SDS-PAGE and Coomassie blue staining. (F): Bands from (E) were digested with trypsin and analyzed by mass spectrometry to identify putative ELANE cleavage sites (i.e., peptides with non-tryptic ends). Major non-tryptic peptides were quantified by ion chromatograms. (G): Schematic of ELANE cleavage sites in CD95. […] (H): Cleavage of recombinant peptides corresponding to aa 214-231 and aa 317-335 in CD95 by ELANE was monitored by mass spectrometry. (I): Cancer cells or non-cancer cells were treated with fluorescein-labeled ELANE for 10 min and uptake was visualized by immunofluorescence. (J): ELANE catalytic activity in cancer cell lysates following exposure to ELANE for 30 mins in the presence and absence of Dynasore (60 μM endocytosis inhibitor). Effect of Dynasore on cancer cell killing capability of ELANE (measured by calcein-AM). n=6/group. (K): Cancer cells or non-cancer cells were transduced to overexpress various CD95 proteins, and cell viability in the absence of ELANE was determined by calcein-AM. n=10/group. *, p<0.05 Student's t-test."}, "[2]": {"test_system": "cancer cells", "experiment": "CD95 protein overexpression in cancer cells, viability in absence of ELANE (calcein-AM)", "format": "cell-based, human", "conditions": "transient overexpression", "experimental": "as §1\n(§2) In vitro cell viability assays. […] Luminescence was measured using a Victor X3 luminometer (PerkinElmer).\n(§3) CD95 overexpression studies. Polycistronic adenoviral vectors were prepared to express the human and mouse CD95 sequences followed by the Encephalomyocarditis virus (EMCV) internal ribosome entry site and dTomato sequence under the control of the cytomegalovirus (CMV) promoter (VectorBuilder). Human and murine cancer cells or normal or non-cancer cells were transduced to over-express full-length CD95, N-terminal CD95 (human: aa 1-209; mouse: aa 1-204), C-terminal CD95 (human: aa 212-335; mouse: aa 204-327), or C-terminal CD95 that mimicked ELANE cleavage at site 1 (human: aa 221-335), site 2 (human: aa 212-331), or both sites (aa 221-331). Cancer cells or normal or non-cancer cells were transduced with adenoviruses at an MOI of 50-250 depending on cell type, and expression of dTomato and CD95 (human: 558814; mouse, mouse: 565130, BD Biosciences) were confirmed by flow cytometry. A vector encoding GFP (Vector Builders) was used as a control."}, "[3]": {"test_system": "human and murine cancer cells", "experiment": "CD95 overexpression, ELANE-mediated apoptosis (ANXA5)", "format": "cell-based", "conditions": "ELANE 40 nM, ANXA5 at 30 min", "experimental": "FIGS. 2A-2D Overexpressing CD95 proteins accelerates cancer cell killing by ELANE. Polycistronic adenoviral vectors were prepared to express the human and mouse CD95 sequences followed by the Encephalomyocarditis virus (EMCV) internal ribosome entry site and dTomato sequence under the control of the cytomegalovirus (CMV) promoter. Human and murine cancer cells or non-cancer cells were transduced to over-express full-length CD95, N-terminal CD95 (human: aa 1-209; mouse: aa 1-204), or C-terminal CD95 (human: aa 212-335; mouse: aa 204-327). (A): Transduction efficiency quantified by dTomato (Left). CD95 levels in dTomato− and dTomato+ cells quantified by geometric mean (MFI) (Middle). ANXA5 levels in dTomato− and dTomato+ cells 30 min after treatment with ELANE (40 nM) (Right). Representative data for A549 cells are shown. (B-C): Quantification of transduction efficiency (B) and relative CD95 overexpression (C) for cancer cells and non-cancer cells. (D): Quantification of ANXA5 levels following ELANE treatment (40 nM, 30 min) for mouse cancer cell lines (E0771, B16F10). *, p<0.05 Student's t-test.\nas §2, §3"}, "[4]": {"test_system": "tumors (MDA-MB-231, A549, MEL888, M1, 4195, E0771, LLC1, B16F10)", "experiment": "Intra-tumoral treatment of tumor models (xenograft, PDX, syngeneic)", "format": "in vivo, mice", "conditions": "E0771 TNBC model, IT, 12 μg/day", "experimental": "Tumor inoculation and treatment. MDA-MB-231 cells (2×10^6), A549 cells (2×10^6) with Matrix Type 3), or MEL888 cells (2×10^6 with Matrix Type 3) were injected into athymic nude mice (Charles River); M1 or 4195 cells (50,000) were injected into NOD.SCID mice (JAX); and E0771 cells (0.5×10^6), LLC1 cells (0.5×10^6), or B16F10 cells (1×10^6), were injected into C57BL/6 mice (JAX). For TNBC models (MDA-MB-231, E0771, M1, 4195), cells were injected into the 4th mammary fat pad of the right ventral side. For all other models (A549, LLC1, MEL888, B16F10), cells were injected into the flank. Once tumors reached ˜100 mm^3, ELANE or PMSF-ELANE (11.6 μg/100 μL), or neutrophil medias or HSA (50 μg/100 μL) were delivered IT once/day for 5 days. Tumor volume was assessed by calipers, and experiments were terminated when tumor volume in control mice reached >1000 mm^3.\nTumor immunohistochemistry. Tumors were fixed in 4% paraformaldehyde in PBS for 24 h, embedded in paraffin blocks, and sectioned (5 μm). Slides were stained with cCASP3 (9661) and cPARP (9625) antibodies from Cell Signaling Technology. Signals were developed using the VECTASTAIN ABC kit (Vector Laboratories) or fluorescently-labeled secondary antibodies (melanoma models). For the TUNEL assay, staining was performed with the DeadEnd™ colorimetric or fluorometric TUNEL systems (Promega). Cell nuclei were labeled with haematoxylin or Hoechst 33342 (ThermoFisher Scientific). Images were obtained with a Nikon Eclipse Ti2 microscope and analyzed using NIS-Elements software."}, "[5]": {"test_system": "human/murine cancer cells", "experiment": "In vitro cell viability of cancer cells (calcein-AM, CASP3, ANXA5)", "format": "cell-based", "conditions": "catalytic inactivation confirmed", "description": "Cell lines. The ovarian cancer cell lines—CAOV3, OVCAR3, OVCAR4, OVCAR5, A2780, A2780/CP70, HeyA8, TykNu, SKOV3, ID8, and ID8p53-/- were a gift from Dr. Ernst Lengyel, University of Chicago. The breast cancer cell lines—MDA-MB-231, MDA-MB-231.BM1, MCF-7, M6C, E0771, and E0771.LMB were a gift from Dr. Marsha Rosner, University of Chicago. The colon carcinoma cell line RKO, glioblastoma cancer cell line T98G, osteosarcoma cell lines U-2OS and Saos-2, and the hepatocellular carcinoma cell line HepG2 were a gift from Dr. Kay McLeod, University of Chicago. The lung cancer cell line NCI-H552 was a gift from Dr. Stephanie Huang, University of Chicago, and A549 and LLC1 cells were purchased from ATTC. The melanoma cell lines—B16F10, Mel888, Mel1106, and SK-MEL-28 cells were a gift from Dr. Thomas Gajewski, University of Chicago. The pancreatic cancer cell line PANC1 was a gift from Dr. Yamuna Krishnan, University of Chicago. The leukemia cell line K562 was a gift from Dr. Amittha Wickrema, University of Chicago.\nThe prostate cancer cell lines—CWR22Rv1, LAPC4, and LNCaP were a gift from Dr. Donald Vander Griend, University of Chicago. The neuroblastoma cell lines—SK-N-BE(2) and NBL-WN cells were a gift from Dr. Lucy Godley, University of Chicago.\nNeutrophil media collections. Freshly isolated human or murine neutrophils were plated in serum-free DMEM for 24 h. Conditioned media was collected, spun at 500×g for 5 min, and media protein levels were determined with a Bradford assay (Biorad).\nPMN media manipulations. For boiling, PMN media was boiled at 95° C. for 5 min and spun at 15,000×g for 10 min to remove precipitated proteins. For dialysis, PMN media was placed into a Slide-a-Lyzer™ cassette (3.5 kDa cutoff, ThermoFisher Scientific) and dialyzed against 2×4L of PBS at 4° C. for 4 h. For PMSF-inactivation, PMN media was treated with PMSF (1 mM, Sigma) or A1AT (42 nM, Athens Research & Technology) and incubated at room temperature for up to 2 h. Residual PMSF was eliminated with a PD-10 desalting column (GE Healthcare Life). Inhibition of ELANE catalytic activity was confirmed using a chromogenic substrate activity assay (see below). For serum-spiking experiments, human, mouse, or fetal bovine serum (1% or 10%) was added to PMN media prior to or after exposing cancer cells. For immune-depletion studies, ELANE or ECP were immunoprecipitated using anti-ELANE (N2C3, GeneTx) or anti-ECP (MB S2535165, MyBioSource) coupled to Pierce™ Protein A/G Magnetic Beads (ThermoFisher Scientific).\nas §2"}}}
{"molecule": "O=C(N/N=C/c1ccc(O)c(O)c1)c1cc2ccccc2cc1O", "note": "[Dynasore]", "values": [{"measurement": "effect on PMN media-mediated killing", "setting": "[1]; Dynasore", "value": "protected cancer cells from PMN media-mediated killing"}, {"measurement": "effect on ELANE uptake", "setting": "[1]; Dynasore 60 μM", "value": "attenuated ELANE uptake"}, {"measurement": "effect on ELANE-induced apoptosis of cancer cells", "setting": "[1]; Dynasore 60 μM", "value": "protected cancer cells from apoptosis"}]}
{"molecule": "B1", "values": [{"measurement": "cancer cell death/toxicity on expression in the absence of ELANE", "setting": "[2]", "value": "not toxic to cancer cells"}, {"measurement": "effect of overexpression on ELANE-mediated killing", "setting": "[3]", "value": "had no effect"}]}
{"molecule": "B2", "values": [{"measurement": "therapeutic benefit, dose finding", "setting": "[4]", "value": "did not produce unexpected worsening"}, {"measurement": "cancer cell killing after inactivation with PMSF or A1AT", "setting": "[5]", "value": "could no longer kill cancer cells"}]}
{"molecule": "B3", "values": [{"measurement": "uptake by cancer cells", "setting": "[1]; 10 min, immunofluorescence", "value": "rapidly internalized"}]}
